From the nanobody polyreactivity screen of Harvey et al. (2022)

Test: yeast display, Sf9 membrane polyspecificity reagent, FACS + sequencing; frameworks hold sequencing errors
Summary of the method: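 A synthetic nanobody library was expressed on Saccharomyces cerevisiae BJ5465 by galactose induction for 36–48 hours. The library was stained for 1 hour at 4 °C with 10% biotinylated, detergent-solubilized Sf9 membrane reagent and enriched with streptavidin microbeads before FACS. Low and high (top ~1%) gates were set on anti-HA fluorescence for expression and streptavidin fluorescence for reagent binding, and each polyreactivity label reflects the gate of origin.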

| Sequence | polyreactivity (PSR sort gate) |
| --- | --- |
| QVQLVESGGGLVQAGCSLRLSCAASGSIFYRNPMVWYRQAPGKERELVAAISSDGSTNYADSVKGRFTISRDNAKNTVYLQMNSLKPEDTAVYYCAAPWTQILDYWGQGTQVTVSS | low polyreactivity |
| QVQLVESGGGLVQAGCSLRLSCAASGSILWHYAKGWYRQAPGKERELVAFISSSGSTYYADSVKGRFTISRDNAKNTVYLQMNSLKPEDTAVDYCNAYRLYSGYVPYDYWGQCTQVTVSS | high polyreactivity |
| QVQLVESGGGLVQAGCSLRLSCAASGSIYPYAMGCYRQAPGKESELVAAINFNGGRTYYAHSVNGRFTISRDNAKNTVYLQMTSLKPDVTAFYYCAARISVYSTLPNDFDYWGQGTQVTVSS | high polyreactivity |
| QVQLVESGGGLVQAGCSLRLSCAASGSTFPYNTMGWYRQAPGKERELVAAITSSAGSTYYADSVKGRFTISRDNAKNTVYLQMNSLKPDDTAVYYCAADYIVWKGSNSYYYAGYYYWGQGTQVTVSS | low polyreactivity |
| QVQLVESGGGLVQAGCSLRLSCAASGSTFRWYAMGWYRPAPGKEREFVAAITSSGGSTYYADSVKGRFTISRDNAKNTVYLQMNSLKPEDTAVYYCNRRYQPYSYDYWGQGTQVTVSS | high polyreactivity |
| QVQLVESGGGLVQAGCSLRLSCAATGFIFKRNAMGWYRQAPGKERELVAAITKSGVNSYYADSVKGRFTISRDNAKNTVYLLMNSLKPEDTAVYYCAARGNRKQAWYKYNYCGQGTQVTVSS | high polyreactivity |
| QVQLVESGGGLVQAGCSLRLSCAAYGSIFSYNAMGWYRQAPGKERELVASISWSGGRTFYADSVKGRFTISRDNAKNTVYLQMNSLKPEDTAVYYCAFRHYSTYYSRFGYWGQGTKVTVSS | high polyreactivity |
| QVQLVESGGGLVQAGCSLRLSCAPSGSTFKVNDMGWYRQAPGKERELVAAIDKSGGTTYYADSVKGRFTLSRDNAKNTVYYQMNSLKPEDTAVYYCAADVIYEMDYWGQGTQVTVSS | low polyreactivity |
| QVQLVESGGGLVQAGCSLRLSCDASGRIFVTNAMGWYRQAPGKERELVAANSYRGGRTYYADSVKGRFTISRDNAKNTVYLQMNSLKPEDTAVYYCNAVTRWPFDYWGQGTQVTVSS | high polyreactivity |
| QVQLVESGGGLVQAGCSLRLSCSASGRIFGYYAKGWYRQAPGKERELVARISGRGGSTYYADSVKVRFSISRDNAQKTVILQMNSLNPEDTAVYYCNVVLSFWKYYAYDQGDYWGQGTQVTVSS | low polyreactivity |
| QVQLVESGGGLVQAGCSLRLSPASGSTLAGNTMGWYRQAPGKERELVAAINDSGGSTYYADSVKGRFTISRDNAKNSVNLQMNSLKPEDTGVYYCNADGSAYIEDGYDYWGQGTQVTVSS | low polyreactivity |
| QVQLVESGGGLVQAGCSLRLSSAASGSTFLGYAMGWYRQAPGKERELVAAITYSAGSTYYADSVKGRFTISRDNAKNTVYLQMNSLKPEDTAVYYCSKRYSGYDHWGQGTQVTVSS | low polyreactivity |
| QVQLVESGGGLVQAGCSLRLTCAASGSTFKKYAKGWYRQAPGKERDFVAAISRGGRTYYAYSVKGRFTISRDNAKNTVYLQMNSLKPEDTAVYYCAAETFGYQEVYFWGQGTQVTVSS | high polyreactivity |
| QVQLVESGGGLVQAGCSLSLSCAASGITFRSYAKGWYRQAPGKERELVAAIRSGGSTSYADSVKGRFTISRDNAKYTVYLQMNSLKPEDTAVYYCAAGGYVPLPDITFWKFGYWGQGTQGTVSS | low polyreactivity |
| QVQLVESGGGLVQAGCSLSLSCAASGSIFGRYTMGWYRQAPGKERELVAAINLRGGSTYYADSVKGRFTISRDNAKNTVYLQMNSLKPEDTAVYYCATVGWKQSAYDYWGQGTQVTVSS | low polyreactivity |
| QVQLVESGGGLVQAGCSRRLSCAASGSIFYHNAMGWYRQAPGKERELVAAISGRGGSTYYADSVKGRFTISRDNAKNTVYLQMNSLKPEDTAVYYCAADARYQNGGLYYWGQGPQVTVSS | high polyreactivity |
| QVQLVESGGGLVQAGCTLRISCAPSGSIFVYNDMGWSRQAPGKERELVASISNGDNTNYADSVKGRFTISRDNAKNTVYLQMNSLKPEDTAVYYCAADGYIGSVVAYGERDYWGQGTQVTVSS | low polyreactivity |
| QVQLVESGGGLVQAGDSLRLICAASGFIFDNYAMGWYRQAPGKERELVAAISQSGTSTYYADSVKVRFTISRDIAKNTVYLQLISLKPEDTAVYYCNVVPTGVHIFDYWGQGTQVTVSS | low polyreactivity |
| QVQLVESGGGLVQAGFSLRLSCAASGSILGSYVMGWCRQAPGKESELVAASSYSTSATYYADSVKGRFTISRDNAKNTVYLQMNSLKPEDPAVYYCNADLGSWYTWYDDWGQGTQVTVSS | high polyreactivity |
| QVQLVESGGGLVQAGGCLRLSCAASGFIFSKNVMGWYRQAPGTERELVARITRSGGTTNYADSVKGRFTISRDNAKNTVYLQMNSLNPGDTAVYFCAARGYGYTSITWYDYWGQGTQVTVSS | high polyreactivity |
| QVQLVESGGGLVQAGGCLRLSCAGSRSTFHYYTMGWYRQAPGKERELVAAISWRGTSTYYADSVKGRFTISRDNAKNTLYVQMNSLKPEDTGVYYCAVRSSPGAGYYYWGQGTQGTVSS | high polyreactivity |

| Sequence | polyreactivity (PSR sort gate) |
| --- | --- |
| QVQLVESGGGLVQAGGGLRLSCAASGRIFAGYAMGWYRQAPGKEREFVAAISRSGVSTYYADSVKGRFTISRDNAKNTVYLQMNSLKPEDTAVYYCNVYKGNVVEHDYWGQGTQVTVSS | high polyreactivity |
| QVQLVESGGGLVQAGGILLLSCAASRRIFGVYAMGWYIQAPGKERELVATIRSSGTRKNYADSLKGRFTISRDNAKNTVYLQLNSLKPEDTAVYYCAAGGRPYKLDFTRSDYWGHGTQVTVSS | low polyreactivity |
| QVQLVESGGGLVQAGGILRLRCAASGSTYGYYAMGWSRQAPGKERELVAAISGSGGRTYYADSVKGRFTISRDNAKNTVYLQMNSLKPEDTAVYYCNTATKNIYDYCGQGTQVTVSS | high polyreactivity |
| QVQLVESGGGLVQAGGILRLSCAASGFIFRDYAMGWYRQAPGKERELVAAISFTDGTTYYADSVKGRFTISRDNAKNTVYLQMNSLKPEDTAVYYCAAGYTGYTYTELDYWGQGTQVTVSS | low polyreactivity |
| QVQLVESGGGLVQAGGILRLSCAASGFIFYHYAMGWYRQAPGKERELVASITSGGRTYYADSVKGRFTISRDNAKNTVSLQMNRLKPEDTAVYYCAAAYYYYSSPRFTTGMDYWGQGTQVTVSS | high polyreactivity |
| QVQLVESGGGLVQAGGILRLSCAASGFTFGLYAMGWYRQAPGTERELVAAIRNNGGSTYYADSVKGRFTISRDNAKNTVYLQMNSLKPDDTAVYYCAKKSFFTGRWWYDYWGQGTQVSVSS | high polyreactivity |
| QVQLVESGGGLVQAGGILRLSCAASGFTFKANAMGWYRQAPGKERELVAAISRRGSSTYYADSVKGRFTISRDNAKNTVYLQMNSLKPEDTAVYYCNTKPRAGRTKLGYWGQGTQVTVSS | high polyreactivity |
| QVQLVESGGGLVQAGGILRLSCAASGFTFNNYAMGWYRQAPGKERELVAAISSGAGTYYAESVKGRFTISRDNAKNTVYLQMNSLKPEDTGVYYCNASLKYQGRTRITYRHDYCGQGTQVTVSS | low polyreactivity |
| QVQLVESGGGLVQAGGILRLSCAASGGIFADYAMGWYRQAPGKERELVADISARGGSTYYADSVKGRFTISRDNAKNTVYLQMNSLKPEDTAVYYCAADALGYDYYYWGQGTQVTVSS | low polyreactivity |
| QVQLVESGGGLVQAGGILRLSCAASGIIFGPNAMGWYRQAPGKERELVAAITSGGRTYYADSVKGRFTISRDNAKNTVYLHMNSLKPEDTAVYYCAARVWSWRSKYDYWGQGTQVTVSS | high polyreactivity |
| QVQLVESGGGLVQAGGILRLSCAASGIISYDYDMGWYRPSPGKERELVAAISTSGGTTYYADSVKGRFTISRDNAKNTVYLQMNSLKPEDTAVYYCAADNYVGYHWYNYWGQGTQVTVSS | high polyreactivity |
| QVQLVESGGGLVQAGGILRLSCAASGITFIRNGMGWYRQAPGKERELVAAISDTGARTYYADSVKGSFTISRDNAKNTVYLQMNSLKPVDTAVYYCAAEVRTRYLYSFRWYDYWGQGTQVTVSS | low polyreactivity |
| QVQLVESGGGLVQAGGILRLSCAASGLTYFYYAMGWYRQAPGKESELVAAISWSGGRTYYADSVKGRFTISRDNAKNTVYLPMNSLKPEDTAVYYCAADYITAHSSYSTYGYWGQGTQVTVSS | low polyreactivity |
| QVQLVESGGGLVQAGGILRLSCAASGRIFLYYTMGWYRQAPGKEREFVAAITRSGSSTYYADSVKGRFTISRDNAKNTVYLQMNSLKREDTAVYYCNRVFTWRYGYRYEYWGQGTHVTVSS | high polyreactivity |
| QVQLVESGGGLVQAGGILRLSCAASGRIFRFYTMGWYRQAPGKERELVAAITSSGRTYYADSVKGRVTISRDNAKNTVYLQMNSLKPEDTAVYYCNKYFRPRTILASPGEYWGQGTQVTVSS | high polyreactivity |
| QVQLVESGGGLVQAGGILRLSCAASGRIFYINAMGWYRQAPGKERELVATISWSGGSTNYADSVKGRFTISRDNAKNTVYLQMKSLIPEDTAVYYCAADSRIYIAYAVRSYERDYWGQGTQVSVSS | low polyreactivity |
| QVQLVESGGGLVQAGGILRLSCAASGRIIQRYAMGWYRQAPGKERELVAAISSSGVSTYYADSVKGRFTISRDNAKNTVYLQMNSLKPEDTAVYYCNAVSSRVYRDYGYDYWGQGTQVTVSS | low polyreactivity |
| QVQLVESGGGLVQAGGILRLSCAASGRTFLVNAMGWYRQAPGKERELVAAISQRGGSTDYADSVKGRFTISRDNAKNTVYLQMNSLKPEDTAVYYCAVRWGYLYDYWGQGTQVTVSS | low polyreactivity |
| QVQLVESGGGLVQAGGILRLSCAASGRTFNGNAMGWYRQAPGKERELVAAISGGSTSYADSVKGRFTISRDNAKNTVYLQMNSLKPEDTAVYYCATDPSEEYDYWGQGNQVTVSS | low polyreactivity |
| QVQLVESGGGLVQAGGILRLSCAASGRTFNQNAMGWYRQAPGKERELVAAITSRGGSTFYAASVKGRFTISRDNAKNTVYLQMNSLKPEDTAVDYCAAPRKQLEVGPGYYWGQGTQVTVSS | high polyreactivity |
